According to the DeepSol protein solubility set:

Experiment: soluble on expression in E. coli; label from the status in PepcDB or PDB records

Row | Sequence | soluble on expression in E. coli
1 | FKDFRLGINLNGVYAKNKILFWDEAPGTPEWQKSTGKPIDSGLYYEAIGIFKDQAAVDAYPHWAGARPGDIIFKDVNGDNVIDGNDRVRNDKSRTPRFTGGLNVDLGYKDFDLSFLLQGAMGGVFYQTTESGDFANFLKSFYDNRWTEENPDADFPRTYNRSNEYFINQQNTFWLHKTDYIRLKNIELGYTVPSIWSKKIGVEHLRVYINAYNLLTISPDMKDYDPENTSGSGYNYPLNKVINFGVNLTF | not soluble
2 | MRCPNCNSLDTQVKDSRPTEDSSVIRRRRVCIACNFRFTTFERVQLRELIVIKRNGRRVPFDRDKLMRSVQISLRKRPVDPERVEQMVSAIVRELESGGEAEISSETIGESVMDHLRKLDDVAYVRFASVYRNFREAKDFEAVLGELSHEDEARAALVRK | not soluble
3 | MNLLLFFLLSTVSVFAVVSGTVEETARDVIDALAHAPFEEWSSVFIETNDRIRAEVIPSTLFIPNSSANGSDDRHKLASYHIVPQRLEFADLLLKPSRSRLPTLLNGSSILVTNNSATSFSIDGVLIIELDIYVDSFIAIHRIAYPLDYTTYGGGSKLISKWPLFTFMLVTVVWFI | soluble
4 | MSLRLKILIKLSGAGMSADSSEPFSNQFLETVIAQLKQLVPNYQIGIVIGGGNIMRGKSCSDYNITEIAGHHLGIMATVINGAFLKAKFDSHKLNSTLLSAVSCPSLATHIVSQATIDDAFKNHDIVIFAGGTGNPYFSTDTAVALRATQMQADIILIGKNGVDGVYTADPKKDKHAKFLASLTYAEAIKNDLQIMDITAFTMCKENNLKVIIFNINAEHAIIKALSKQGKYTLIEKEGHHHHHH | soluble
5 | GSHSLRYFYTAVSRPGLGEPRFIAVGYVDDTEFVRFDSDAENPRMEPRARWMEREGPEYWEQQTRIAKEWEQIYRVDLRTLRGYYNQSEGGSHTIQEMYGCDVGSDGSLLRGYRQDAYDGRDYIALNEDLKTWTAADFAAQITRNKWERARYAERLRAYLEGTCVEWLSRYLELGKETLLRSDPPEAHVTLHPRPEGDVTLRCWALGFYPADITLTWQLNGEDLTQDMELVETRPAGDGTFQKWASVVVPLGKEQNYTCRVEHEGLPKPLSQRWEPLLEHHHHHH | soluble
6 | MGSDKIHHHHHHMPIITSYITQDDGTTTVVISGVELGNKETLLLDNGFDVEVDVSVIDPFQITGKQRRKIFALVKDIEEHTGQPMDYMRHMFIEFVRTYYGYDERISLSNCTRTQASQIIEATLDWTFYNDIPLSYKTSNLLKQDKSFLYWSTVNRNCVICGKPHADLAHYEAVGRGMNRNKMNHYDKHVLALCREHHNEQHAIGVKSFDDKYHLHDSWIKVDERLNKMLKGEKKE | not soluble
7 | PIGKATDNMYSYLALLQDDPTIQIVNQAQKAYVEKVAPSIAAMAGLPILSAGAPFKAGGRKNDPTGYTEVNKGKLTFRNAADLYLYPNTLVVVKATGEQLKEWLECSAGMFKQIDPTSDKPQSLIDWEGFRTYNFDVIDGVNYEYDLTKPARYDGECKLINPESHRVVNLTYQGKPVDPKAEFLIATNNYRAYGNKFPGTGDKHIVYASPDESRQILADYIKATSEKEGSVNPNADKNWRFVPI | not soluble
8 | MGSDKIHHHHHHMNFFEIVNAHLSELSPNEQKLFDYVVTNMGQIKNQSIREVASATFVSTATFLRFVKKIGFSGFSEFTTVIKFTLINRQEAERTTPFVVQQKDYREEYLKNIGESIRVIQPDHLRQVVDRLAQHPDVFFFAKGVSKHAVAYIDYLYTMAGFKTHFPRDHDYRKQALTQVDNDALVFILTYKGSDGEMLDMMSQLVGRPVRPLLVSITEPDNNTIQNLSDINFYIFTDGVTVNGTDISSRISTISVMELILYQYVEDYGGRDFHFQRQLES | not soluble
9 | MNQKPTPLMSPPPPAQQNGKDHKEKLHRIEDIMYSDADTFPEFSNRDGSRETVDTCWQLVLIRVPEHPNETHIKTINDAITSEMKATWKIPATSFAYVSAPHIPILQLAYGVAKKHFGEKTAIRSSFMFAEPKNDKFLIAKDSDLKHLKYEVILGASRFCWTKVETHAEMSKRIESTLFELMRVLPNLVLFLGPLAFDVLYETLEMQKRKTIAKPGVVIENFKRENNKWKRVQKHGATSISVPLC | not soluble
10 | MSLIEKLRNIAIIAHVDHGKTTLVDKLLQQSGTFDSRAETQERVMDSNDLEKERGITILAKNTAIKWNDYRINIVDTPGHADFGGEVERVMSMVDSVLLVVDAFDGPMPQTRFVTKKAFAYGLKPIVVINKVDRPGARPDWVVDQVFDLFVNLDATDEQLDFPIVYASALNGIAGLDHEDMAEDMTPLYQAIVDHVPAPDVDLDGPFQMQISQLDYNSYVGVIGIGRIKRGKVKPNQQVTIIDSEGKTRNAKVGKVLGHLGLERIETDLAEAGDIVAITGLGELNISDTVCDTQNVEALPALSVDEPTVSMFFCVNTSPFSGKEGKFVTSRQILDRLNKKLVHNVALRVEETEDADAFRVSGRGELHLSVLIENMRREGFELAVSRPKVIFREIDGRKQEPYENVTLDVEEQHQGSVMQALGERKGDLKNMNPDGKGRVRLDYVIPSRGLIGFRSEFMTMTSGTGLLYSTFSHYDDVRPGEVGQRQNGVLISNGQGKAVAFALFGLQDRGKLFLGHGAEVYEGQIIGIHSRSNDLTVNCLTGKKLTNMRASGTDEAVVLVPPIRMTLEQALEFIDDDELVEVTPTSIRIRKRHLTENDRRRANRAPKDEGHHHHHH | soluble
11 | MPITSTTPEPGIVAVTVDYPPVNAIPSKAWFDLADAVTAAGANSDTRAVILRAEGRGFNAGVDIKEMQRTEGFTALIDANRGCFAAFRAVYECAVPVIAAVNGFCVGGGIGLVGNSDVIVASEDATFGLPEVERGALGAATHLSRLVPQHLMRRLFFTAATVDAATLQHFGSVHEVVSRDQLDEAALRVARDIAAKDTRVIRAAKEALNFIDVQRVNASYRMEQGFTFELNLAGVADEHRDAFVKKS | not soluble
12 | MSLELTRYEIIKILMEYVTDEIVVCNIGIPSKELFKINDREKNFYMLGSMGLSSSIGHGLALSVNEKVIAIDGDGSVLMNMGSLATIGKTTPKDFLLLIVDNCAYGSTGNQETHSTCTDLYQVSKACGIDSIGVFNEEQLRDAVKLALSESGTKVIVAKARPHNENVPNINLVPTEIKHRFMNAIKKEGHHHHHH | not soluble
13 | MESEKKIAHEIGGVKNDALRFGLHGVKSNIIGSHPLESSYESEKKSKEALKRTVIAHAYGTALPLKMDMDRQILSRFQRPPGPIPSSMLGLEVYTGAVDDFGFEDYLNDPRDSETFKPVDFHHGMEVRLGISKGPIYPSFM | not soluble
14 | MSLTFTEQAKDQAQASWQGSFQHPFITELHEGTLSPTIFRYYLIQDHYYLKHFSQLYRLIAAQTQQPRLKKLLLTNAENLALGELAIRETFFEELAITEEEVAATPIAPTAYHYVSHMYRQLIEGTPKTAAASMLPCSWLYQEIGAQLVKQHSPEPLYQRWIETYAGEEAYQHVQEERQLLDQLYEESSPQEQAAMITAFVISSEMEYAFWEMAYTHETWIGEGGSHHHHHH | soluble
15 | METQENMIKTALQAAQKPFFEFAPNNTPLVFTPDQDGGWRYKSHPELMQNPYRKCGKFLMHDTASLIKFVQKHKQDGTQIYIDADFKSGRIDVTAVINGHTQQAPGWLDFYAVYTPQHTTSASNWLNNNAHRMNQMEFSHFLTNNARNIVSKNPGNENSVYPTAAEVLDFALNLEYTEKTTFKQGYREQDGRINFTFQSEDSGQTEKNLKMFERFGIEFTPHQGGASYFVEALLKFRIDKNSGALVLWYELQQIDAVIEQAAKDISEAVQKAFPEIDIYFGVIA | soluble
16 | MQFNAVLVKLLDELEVRLRAAQLWQATPPSSQALVSQEPFAVDTLLPHEWLQWIFLPKMQQAIAQNAVPRGFALEPYFSEVWQGEARYQAVLAVIQQIDKVCQ | not soluble
17 | MMTTSLFNNDDLNQLESKGITPEEAMRQVEALRYGFPYPNIIAPASLENGIMRLDEDDKSAYLLEWDRYLNSPNCNVVKFVPASGAASRMFKDLYNFLDADYNEPTTDAEKAFFAHLTRFAFYDSLNETCLRNAWRTVPKLIASKEYKTVVENLLYPKGLNYGNLPKGLLLFHLYGKETRTPTEEHLAEGALYERSGTRQVKVHFTVSPEHIEEFKNNIDKRQRFLEDEYCIRYEVSFSVQDSSTDTLALTPEGELFRLENGELLFRPGGHGALIRNLQETNADIVFIKNIDNVVPDFLKCDTIIYKKLIAGVLVKAREHIFNYLQLLEKPKVVHAQLMEIVDFLRYNFCIEISNIDLMEDKDLLELLRRKLDRPIRVCGMVRNQGEPGGGPFIIREADGSSSLQILESTQIDMSDPQKRAIFEQGSYFNPVDLVCSLRDYKGEPFNLESFVNPKTAFISEKSKDGRKLLALERPGLWNGAMDDWNTIFIEVPISTFAPVKTVNDLLRPEHQPCQS | soluble
18 | MSLFFIYDFAMIMQFNSRYSDLNAKLYHQQAPVPLKGAKAGHFNEAIADELQWTSQEKQSWVDICSGQKTFDAFKPLAMVYAGHQFGQWAGQLGDGRGLLIGQVLHRSGQTIDLHLKGAGLTPYSRMGDGRAVLRSVIREYLAGHALNSLRVASSNAIGFTTSEQGVQRETLEQGAMLLRTSDCHIRLGHFEWINQYAPELLAEFTQKCIEWHYPEALQAEHPILAFAEGVIKNTAKMIADWQLVGFAHGVMNTDNLNITGSTLDFGPYGFMERFRPNWINNHSDHQGRYAYQNQPSIAHWNLWIWLNNLIPLSKPEDKETFKKQLADCLEHFEPTFLTAYTEGLCKKLGLPDFHKDSFDCGMAFLKVLQSEQLDYTQSFLRLQNHDYKALRDDCLDTRQFDDFLNLYHQIREHQDITALDQTMCDVNPVYILRNHMAQQAIEQAERGDFSEVERLFTLLAKPFTRQPALEKEQDLAPLPSDVPEIMVSCSSEGHHHHHH | not soluble
19 | MGSDKIHHHHHHMVKNYVLDTNVLIHDPDSIFSFEDNNVIIPLPVLEELDKLKREHGSVGKNAREVIRHLDELRKKGNLRKGIPLENGGILRVMVLEREVENVPRFLHERYVDNIILAYVIELMNREKIPTILVSKDINLRVKADSLGIPAQDYLTDRSELETMPKGYVEIDDEELKKQLKVKVTVEKKLDLLDNFYIDLGGVYGKYRKGKVLRVEPFETMGISPRNREQIFSMDALLDDEIPLVFLVGIAGTGKTLLALACGLYKVLVEKRYKKLIVTRPTVPMGRDIGYLPGELEKKMKPWLQPIMDNLELISSLSGLKIKELEKQEILEVEAISFIRGRSIPKQFIIIDEAQNLTPHEVKTILTRVGEDTKIVLVGDPYQIDTPYLDKDTNGLVYAALKLLESDLSAVIKLEKGERSRLATIAAELL | not soluble
20 | RIVCQFSCGAASAVATKLALADYSATHDVQILNAYLVNEHADSLRFLADCEAWFEQPVTVLRDEKYGADIIEVFRRERFIKKQYGASCTQLLKRRLLDIWKLPGDVMVFGYTAEEADRLEDFRERNPDRPVIAPLIDRGLGKEDCKAMIQRAGIELPVMYRMGYDNANCI | not soluble
21 | MHISEVKTAFKIADVEYVKDSTKLNFNYLKDLKDENNQPLSQNILTQNVARVYLIVVNGEIKKIGGSQADGGIKSTLNIYKDGGVKGRPNIRSFGVWYFLYHTILTGAKIEFYMIYQPNFETQVKGLFGFCAIKDASISYKLLEQACLTDYRNNSNDALPEWNVQEQGKD | not soluble
